Results as given in the supplement of paper PMC9170038.

Tested on: K4 kissing-loop RNA reporter
Test: apparent KD of K4 kissing-loop reporter; higher = weaker reporter binding
Settings: Eterna round: R107
Method: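 RNA-MaP round R107: designed RNA switches with theophylline, tryptophan, arginine or FMN aptamers are transcribed on-chip within common flanks. They are titrated with a labelled K4 kissing-loop RNA reporter in RNA-MaP buffer (100 mM Tris pH 7.5, 80 mM KCl, 4 mM MgCl2), without ligand or with the indicated ligand. Median apparent KD per design.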

[1] = input ligand: theophylline 20 uM
[2] = input ligand: tryptophan 2.4 mM
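Note: bound reporter read as fluorescence of individual clusters on recovered sequencing chips by microscopy, with normalized cluster intensities fitted with a binding model.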

| Sequence | apparent KD of K4 kissing-loop reporter (input ligand: FMN 200 uM) [nM] | apparent KD of K4 kissing-loop reporter (input ligand: arginine 13.2 mM) [nM] | apparent KD of K4 kissing-loop reporter (input ligand: none) [nM] | apparent KD of K4 kissing-loop reporter [1] [nM] | apparent KD of K4 kissing-loop reporter [2] [nM] |
| --- | --- | --- | --- | --- | --- |
| UGUCAUGGAAACAUGAACGUUGAAAUAUGACGAGGACCGGUACGGCCGCCACUCGAGUAAUGGUCAGUGAUGUUGACUGGAUUAA [KL-SSTryp-A form1 sub5 #split stat1] | 59.9 | 110 | 81.9 | 103 | 51.9 |
| AUUUUUUUAUCAGGAUAUUAGUGUUGGUUUGUUUUGUUAGUGAUGUUGAUAUUUGUUUUAUGUAUUUAAGAAGGGAUUGUGAUGU [huupullin] | 473 | 371 | 409 | 381 | 264 |
| GUACGCUGCUGAGUGAUGUUCAGCAAUCGCUAGGAUAUCGCUUUUGCGAGAAGGAGCGCAAUGAGGAAACUCGUUGUUAGUGUAC [FMN A 28] | 166 | 198 | 255 | 204 | 207 |
| AAACAUCACUGGGAGUGAUGUUCUCAGUGACGAGGACCGGUACGGCCGCCACUCGCGAGAGAUAUAGUCAAGUAAUGACUGCAUU [Excl Tryptophan A V9] | 365 | 309 | 407 | 375 | 413 |
| GUGGUGGUGGCGGCCGCCACUGAAGAUAAUGAGUGAUGUUCAAGUGAUGUUAAUAAGAACAGUAUCAGGACCGGGCCACCACCAC [Default title] | 37.5 | 27.7 | 34.1 | 25.4 | 33.8 |
| AGGAGCGUGGGAUGUAAAUCGCACGCUCCUCGAGGACCGGUACGGCCGCCACUCGCUCGCGCCGAGUGAUGUUCGGCCGGCGAAC [#2 Same State - Tryptophan A Attempt #13 (HarryS)] | 243 | 325 | 225 | 209 | 446 |
| AAUCAAUACAGAAGGAGCGUGACAGUUGCGAGUGUAAUUUUAGCUAGUGAUGUUAGCAUUUCACAGGUAGGUCGCUGUACAUUUA [#05 K4 Arginine B Same State] | 115 | 134 | 133 | 140 | 105 |
| AAGUACACGAUAGUGUACACCUAGUGAUGUUAGGAUAUGCAGAUAUGCAGAAGGAACGAGUCAUCUGACAAUAGUCGGAUGACAA [FmnAX 8 #OpenEnded #K4Early] | 564 | 70.2 | 100 | 103 | 82.4 |
| ACGUGUCACUGAAGGAGCGUCUACCGAAUACGAGUGAUGUUCGUACACCACUGAUAUAGUGGACAGGUAGGUCGCAGUGAUACGU [Arg B Ex t3] | 120 | 101 | 122 | 102 | 107 |
| GUAUUGUGAAUGGAUACCAGACACCCGAGUGAUGUUCGGAGCAGAGUGAUGUUCUAAUAAGUCCCUUGGCAGCCGGAAGCAGCCG [Same State Theophylline B GF 3] | 223 | 296 | 340 | 392 | 242 |
| CUUAUGGACUAAGGAUAUGGGUAUACCGGAAGCGCCGUCACGGUAGUGAUGUUACACGCGACGGGACCAGAAGGUAGAUCGCUCC [theeternabot_exclusion_KL_FMN_B_33] | 73.9 | 96.2 | 101 | 71.3 | 85.5 |
| GACAUAUUCCAGGAUACCAGUGAUCCGCCGCAGCCGAAGACUAGUGAUGUUAGUUUCUGUCACCCUUGGCAGCCUCGAGUCUAAU [theeternabot_sameState_KL_Theo_B_15] | 420 | 487 | 498 | 572 | 434 |
| UGAUUGGCGAAAGUAGUGAUGUUACGAAUAUAGGAUAUUAGAGGAAUAAGAAGGAUAAGGGAGAAAUAGGUAAAUUGUUGGUUGG [whbob_SS_FMNA__2th170] | 132 | 79.7 | 128 | 126 | 100 |
| GCCUACGUAGCAGGAUAUAGGUAAGUGAGUGAUGUUCAAGAGUUCUGGAGUGAUGUUCCAAUCUGACUAGAAGGGCUACGUAGGC | 58.4 | 45.2 | 79.3 | 57.3 | 54.1 |
| UCCUUUUUUGCCAGUGAUGUUGGACAGGAAGGAGCGGGCAUAAGCCCAGGUAGGUCGCCUGUCAACUUUCUUAUAGCCCUAAGGU [Edveza] | 271 | 226 | 236 | 210 | 245 |
| CAACGAGUGAUGGUCGUUGACGGCCAUCCCGAGGAUAUGGGAUUAUCCAGAAGGCGGGAUCGCCGGGAGUGAUGUUCCCUGAUCA [Same State FMN A GF 14] | 139 | 181 | 168 | 300 | 151 |
| AAAACUCGGUAGUGAUGUUAUUGAGUGAACAAGGAUAUCUAUGAUAAGAGAAGGUGUAAGUUAAGCGUAUUUCGGCCUGUACAAU [theeternabot_sameState_KL_FMN_A_34] | 115 | 101 | 114 | 106 | 103 |
| UGACAUUGCUCAGAUACCAGACAUGAGCAUCAGCCAUGUGCCAAAUAAACGUACAUAAAUGUCCCUUGGCAGCUGAGCAAUGUCU [TheoBX 11] | 53 | 33.2 | 38.3 | 118 | 64.9 |
| UGGAGUUGACGAAAAGUCAACUCCAGAGAAGGAGCGGACGAAAGUCCAGGUAGGUCGCUCACUACCAGUGAUGUUGGUACUUAAA | 68.4 | 243 | 170 | 137 | 139 |
| CGUUUAUAGCAGGAUACCAGUACCCAUAAAGUACGUUAAUAGUAGAGUGAUGUUCUAAAGUACCCUUGGCAGCUUCCCGUGACUG [ExTheophylB.U] | 65.3 | 116 | 79.5 | 99.8 | 52.9 |
| AAGUGUGUGGCGGCCGCCACUAGAAUCCAGUGAUGUUGGAGUAAUCAAAUAAAUGAUAAUCAACAUAGGACCGGGCCAUAUAGAA [Same State - Tryptophan B (Freestyle 3)] | 345 | 307 | 349 | 351 | 309 |

| Sequence | apparent KD of K4 kissing-loop reporter (input ligand: FMN 200 uM) [nM] | apparent KD of K4 kissing-loop reporter (input ligand: arginine 13.2 mM) [nM] | apparent KD of K4 kissing-loop reporter (input ligand: none) [nM] | apparent KD of K4 kissing-loop reporter [1] [nM] | apparent KD of K4 kissing-loop reporter [2] [nM] |
| --- | --- | --- | --- | --- | --- |
| UUUAUAAUGUCGGCCGCCACUGGAUUAAUAUUUGUAUAAUCUAGUUCAAAGUGAUGUUUUGAGUCCAGGACCGGGACAUUUGUUA [JR_ExcTryptoB_Sub003] | 570 | 490 | 582 | 509 | 407 |
| AAUUCUUAUCUUAGUAGAUUUCUAAUUAAACGAGGACCGGUACGGCCGCCACUCGGUUAUGAGUGAUGUUCAUGGAAUUACAUAA [JR_SSTryptoA_Sub018] | 285 | 486 | 467 | 486 | 172 |
| CUAUCGGUGCCAGUGAUGUUGGUACCGCCACGAGGACCGGUACGGCCGCCACUCGCAUUAGAUGAUCACACAGUGUAUACUGCUA [Aleusorza] | 139 | 128 | 135 | 159 | 122 |
| GCCAGAGCGCGAAGGAGCGCCGUGACAGGUUGCUGCCGUGGGCAGUGAUGUUGCUCAAUCUGGCAGGUAGGUCGCGUGCUCUGGC | 269 | 219 | 273 | 226 | 248 |
| GGGAUGUAGUGAUGUUAUAUUAGAUGUAGACGAGGACCGGUACGGCCGCCACUCGUGAUGGCUGCUAGCACGUUUCGAUGUUUGC [ExTryptoA.Cr] | 399 | 426 | 428 | 462 | 309 |
| AGUGAUGUGGGAAGGAGCGGUAUAUGAGUUCAGUGAUGUUGAAGUGAUGCUGUAGUGUUGUGCCAGGUAGGUCGCCUAGAUGUUA [KL-XARG B25] | 333 | 254 | 316 | 226 | 233 |
| CCGAUACAUUAUUCUACGGCCGAGAGUGAUACCAGCCAUAUUUAUGGCCCUUGGCAGCGCAGAUGCAGUGAUGUUGCAUACUUAC [Same State Theophylline A GF 19] | 85.7 | 119 | 91.5 | 115 | 73.7 |
| GAGAGCCCUGUAGGAUAUGAGUCUAGUGAUGUUAGGCGGUCCAUGCGCGUGGCGCGUUAUGCCCUUUUAGAAGGACAGGGCUCUC [#2 Exclusion - FMN B Attempt #20 (HarryS)] | 105 | 67.2 | 80.9 | 80.1 | 80 |
| GUAGCACAGUCGGCCGCCACUGUCGGUUCUCCAGUGAUGUUGGAGUUAGUUCGUCGCAGUUCAAACAGGACCGGGACCAUUCCUU [theeternabot_exclusion_KL_Trp_B_26] | 125 | 135 | 127 | 132 | 121 |
| AGUGUUGUUUUUUUUAAGAGUGAUGUUUUUCGAGGACCGGUACGGCCGCCACUCGAGUGAUGAGUGAGGUGUGGUGAUGAUUAGU [#10 K4 Tryptophan A Exclusion] | 816 | 790 | 1050 | 664 | 337 |
| GGAUGGUAGGCGGCCGCCACUAAAACAGAACACAUACAAGCCAGUGAUGUUGGUAUGAUGGUGUAUAGGACCGGGCCUAGAUAGA [Exclusion - Tryptophan B (Freestyle 5)] | 197 | 178 | 199 | 186 | 196 |
| GGAUGGUAGGCGGCCGCCACUAAAACUGAACACAUACAAGCCAGUGAUGUUGGUAUGAUGAAGUAUAGGACCGGGCCUAGAUAGA [Exclusion - Tryptophan B (Freestyle 3)] | 446 | 384 | 422 | 502 | 469 |
| AAGGCGUCGAGUUUGGUGGCGCCAACAGAUACCAGAUUACCUCCAAUCCCUUGGCAGCUGGCUUGAGAGUGAUGUUUUCAAAAGU [theeternabot_sameState_KL_Theo_A_33] | 532 | 447 | 627 | 528 | 349 |
| CUCACGCUCACAGAUACCAGUGGUGAUCCGGAUUGUAGUGAUGUUAAUUCCGCCAUCAUACACCCUUGGCAGCUGGCGUCACCUU [theeternabot_sameState_KL_Theo_B_31] | 799 | 417 | 654 | 871 | 715 |
| UCUGUUGUAUAUGAUACCAGCAGUGAGAGACGAGAAGUAUAGUGAUGUUAUAUGAGAGAAUGCCCUUGGCAGCGUGUGCGUGUGG [SSTheophylB.aB] | 111 | 110 | 95.4 | 118 | 83.2 |
| UUGGUCUUUUAAGGAUAUCAUACUCCACUGAGCGAGUGAUGUUCGCUCCUGUUACGCCUGGGACCGUGAGAAGGUAAAGUACCGU [theeternabot_sameState_KL_FMN_B_5] | 149 | 138 | 163 | 147 | 137 |
| GACCGGCCGACGAGUGAUGUUCGAUGGGAAGGAGCGCGAAGAAAUGCAGGUAGGUCGCCCUAAGUAAUUGAAACGGCCGGAUUAU [2.)] | 137 | 143 | 128 | 212 | 102 |
| AAUUAAUACAGAAGGAGCGUGUAUUUAACUACAAUUAUCUUAGCGAGUGAUGUUCGUUUUACACAGGUAGGUCGCUGUAUAUUUA [JR_ExcArginiB_Sub010] | 201 | 279 | 235 | 262 | 157 |
| AGUACGGACACGGCCGCCACUCAGAAGAAGACAGUAGUGAUGUUACUGAUGGUGAGAAUAAUAAAGAGGACCGGGUGUCGUGCAA [#05 K4 Tryptophan B Same State] | 270 | 191 | 286 | 230 | 171 |
| AGCGGCGCGCUGGAUACCAGUGUCCGACGCGUUAGUAUAGAUCCAAAGUGAUGUUUUGGUCACCCUUGGCAGCCACCUCUGUCGG [theeternabot_exclusion_KL_Theo_B_29] | 237 | 192 | 245 | 257 | 195 |
| GGCAUCCAUGGACAUAGUGAUGUUAUGUACCGAGGACCGGUACGGCCGCCACUCGGCCAUGGAUGCCGCAAUCGGAAACGAUUGC | 868 | 558 | 885 | 667 | 290 |
